Laboratory results published in US20200010567A1 (NEURIMMUNE, published 2020).

Experiments:
[1] = molecular target: T1, BSA-coupled (PA)15 DPR protein peptide (bovine, UniProt P02769 25-607, conjugated via a bifunctional linker (SMCC) to bovine serum albumin); assay: Western blot of BSA-coupled peptides
T1 construct: also called BSA-(PA)15
Protocol: (§1) Resolved proteins were then electroblotted (Novex® Semi-Dry Blotter, 1 h, 25V) on methanol-activated PVDF membranes (Immobilon®-P Transfer Membrane, Merck & Cie, Schaffhausen, Switzerland) by the use of Novex® NuPAGE® transfer buffer 2× (Life Technologies Europe B.V., Zug, Switzerland). Non-specific binding sites were blocked overnight at 4° C. (or alternatively for 1 h at room temperature) with PBS/0.1% Tween®-20 containing 2% BSA (Sigma-Aldrich, Buchs, Switzerland) (PBST). […] Membranes were washed three times in PBST for 15 min at RT and then incubated with a donkey anti-human IgG Fcγ-specific antibody conjugated with HRP (1:20000 or 1:10000 dilution, Jackson ImmunoResearch Laboratories, Inc., West Grove, USA) for 1 h at room temperature. Antibody binding was determined by membrane development using ECL and ImageQuant 350 detection (GE Healthcare, Otelfingen, Switzerland).
(§2) The binding specificity of the human-derived antibodies to BSA-coupled C9orf72 dipeptide repeat proteins (GA)₁₅, (GP)₁₅, (GR)₁₅, (PA)₁₅ and (PR)₁₅ was determined by Western blot analysis.

[2] = molecular target: T2, BSA-coupled (GP)15 DPR protein peptide (bovine, conjugated via a bifunctional linker (SMCC) to bovine serum albumin); assay: Western blot of BSA-coupled peptides
T2 construct: also called BSA-(GP)15
Protocol: as §1, §2

[3] = molecular target: T3, BSA-coupled (GR)15 DPR protein peptide (bovine, UniProt P02769 25-607, conjugated via a bifunctional linker (SMCC) to bovine serum albumin); assay: Western blot of BSA-coupled peptides
T3 construct: also called BSA-(GR)15
Protocol: as §1, §2

[4] = molecular target: T4, (GR)15: H-C(GR)15-OH; assay: indirect ELISA, coated peptide
T4 construct: synthetic, not coupled to BSA; also called poly-GR DPR protein peptide
T4 peptide: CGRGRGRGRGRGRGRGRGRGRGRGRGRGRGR
Protocol: (§3) In brief, dipeptide repeat proteins were synthesized and purified by Schafer-N(Copenhagen, Denmark): (GA)₁₅: H-CHHHHHH(GA)₁₅-OH; (GP)₁₅: H-C(GP)₁₅-OH; (GR)₁₅: H-C(GR)₁₅-OH; (PA)₁₅: H-C(PA)₁₅-OH; (PR)₁₅: H—C(PR)₁₅-OH. 96-well microplates (Corning Incorporated, Corning, USA) were coated with dipeptide repeat protein peptides at a concentration of either 5 μg/ml or 20 μg/ml in coating buffer (15 mM Na₂CO₃, 35 mM NaHCO₃, pH 9.42). Non-specific binding sites were blocked for 1 h at room temperature with PBS/0.1% Tween®-20 containing 2% BSA (Sigma-Aldrich, Buchs, Switzerland). Primary antibodies were diluted to the indicated concentrations and incubated for 1 h at room temperature, followed by incubation with a donkey anti-human IgG Fcγ-specific antibody conjugated with HRP (Jackson ImmunoResearch Laboratories, Inc., West Grove, USA). Binding was determined by measurement of HRP activity in a standard colorimetric assay. EC₅₀ values were estimated by non-linear regression using GraphPad Prism software (San Diego, USA). The binding specificity and EC₅₀ of human-derived antibodies for C9orf72 dipeptide repeat protein peptides (GA)₁₅, (GP)₁₅, (GR)₁₅, (PA)₁₅ and (PR)₁₅ were determined by indirect ELISA.

[5] = molecular target: T5, (GP)15: H-C(GP)15-OH; assay: indirect ELISA, coated peptide
T5 construct: synthetic, not coupled to BSA; also called poly-GP DPR protein peptide
T5 peptide: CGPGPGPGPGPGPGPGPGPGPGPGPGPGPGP
Protocol: as §3

[6] = molecular target: T6, (PA)15: H-C(PA)15-OH; assay: indirect ELISA, uncoupled peptide coated, antibody titrated [also D00011 FIG. 2M]
T6 construct: synthetic, not coupled to BSA; also called poly-PA DPR protein peptide
T6 peptide: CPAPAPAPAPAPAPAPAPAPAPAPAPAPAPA
Protocol: as §3

[7] = molecular target: T7, (GA)15: H-CHHHHHH(GA)15-OH; assay: as above
T7 construct: synthetic, not coupled to BSA; also called poly-GA DPR protein peptide
T7 peptide: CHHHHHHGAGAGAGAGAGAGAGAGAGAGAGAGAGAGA
Protocol: as §3

[8] = molecular target: T8, BSA-coupled (PR)15 DPR protein peptide (bovine, conjugated via a bifunctional linker (SMCC) to bovine serum albumin); assay: indirect ELISA, BSA-coupled peptide coated, antibody titrated [also D00016 FIG. 3M]
T8 construct: also called BSA-(PR)15
Protocol: as §3, with “(PR)₁₅: H—C(PR)₁₅-OH. DPR protein peptides were then conjugated via a bifunctional linker (SMCC) to bovine serum albumin (BSA). 96-well microplates” for “(PR)₁₅: H—C(PR)₁₅-OH. 96-well microplates”, “coated with BSA-coupled or -uncoupled dipeptide repeat” for “coated with dipeptide repeat”, “and incubated 1 h” for “and incubated for 1 h”, “Diego, USA).” for “Diego, USA). The binding specificity and EC₅₀ of human-derived antibodies for C9orf72 dipeptide repeat protein peptides (GA)₁₅, (GP)₁₅, (GR)₁₅, (PA)₁₅ and (PR)₁₅ were determined by indirect ELISA.”

[9] = molecular target: T9, (PR)15: H-C(PR)15-OH; assay: indirect ELISA, uncoupled peptide coated, antibody titrated [also D00016 FIG. 3M]
T9 construct: synthetic, not coupled to BSA; also called poly-PR DPR protein peptide
T9 peptide: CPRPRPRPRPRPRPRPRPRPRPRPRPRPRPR
Protocol: as §3, with “(PR)₁₅: H—C(PR)₁₅-OH. DPR protein peptides were then conjugated via a bifunctional linker (SMCC) to bovine serum albumin (BSA). 96-well microplates” for “(PR)₁₅: H—C(PR)₁₅-OH. 96-well microplates”, “coated with BSA-coupled or -uncoupled dipeptide repeat” for “coated with dipeptide repeat”, “and incubated 1 h” for “and incubated for 1 h”, “Diego, USA).” for “Diego, USA). The binding specificity and EC₅₀ of human-derived antibodies for C9orf72 dipeptide repeat protein peptides (GA)₁₅, (GP)₁₅, (GR)₁₅, (PA)₁₅ and (PR)₁₅ were determined by indirect ELISA.”

[10] = molecular target: T8, BSA-coupled (PR)15 DPR protein peptide; assay: Western blot of BSA-coupled peptides
Protocol: as §1, §2

[11] = molecular target: T9, (PR)15: H-C(PR)15-OH; assay: indirect ELISA, coated peptide
Protocol: as §3

[12] = molecular target: T6, (PA)15: H-C(PA)15-OH; assay: indirect ELISA, coated peptide
Protocol: as §3

[13] = molecular target: T5, (GP)15: H-C(GP)15-OH; assay: indirect ELISA, uncoupled peptide coated, antibody titrated [also D00015 FIG. 3L]
Protocol: as §3, with “(PR)₁₅: H—C(PR)₁₅-OH. DPR protein peptides were then conjugated via a bifunctional linker (SMCC) to bovine serum albumin (BSA). 96-well microplates” for “(PR)₁₅: H—C(PR)₁₅-OH. 96-well microplates”, “coated with BSA-coupled or -uncoupled dipeptide repeat” for “coated with dipeptide repeat”, “and incubated 1 h” for “and incubated for 1 h”, “Diego, USA).” for “Diego, USA). The binding specificity and EC₅₀ of human-derived antibodies for C9orf72 dipeptide repeat protein peptides (GA)₁₅, (GP)₁₅, (GR)₁₅, (PA)₁₅ and (PR)₁₅ were determined by indirect ELISA.”

[14] = molecular target: T7, (GA)15: H-CHHHHHH(GA)15-OH; assay: indirect ELISA, uncoupled peptide coated, antibody titrated [also D00011 FIG. 2L]
Protocol: as §3

[15] = molecular target: T2, BSA-coupled (GP)15 DPR protein peptide; assay: indirect ELISA, BSA-coupled peptide coated, antibody titrated [also D00015 FIG. 3L]
Protocol: as §3, with “(PR)₁₅: H—C(PR)₁₅-OH. DPR protein peptides were then conjugated via a bifunctional linker (SMCC) to bovine serum albumin (BSA). 96-well microplates” for “(PR)₁₅: H—C(PR)₁₅-OH. 96-well microplates”, “coated with BSA-coupled or -uncoupled dipeptide repeat” for “coated with dipeptide repeat”, “and incubated 1 h” for “and incubated for 1 h”, “Diego, USA).” for “Diego, USA). The binding specificity and EC₅₀ of human-derived antibodies for C9orf72 dipeptide repeat protein peptides (GA)₁₅, (GP)₁₅, (GR)₁₅, (PA)₁₅ and (PR)₁₅ were determined by indirect ELISA.”

[16] = molecular target: T4, (GR)15: H-C(GR)15-OH; assay: indirect ELISA, uncoupled peptide coated, antibody titrated [also D00015 FIG. 3J]
Protocol: as §3, with “(PR)₁₅: H—C(PR)₁₅-OH. DPR protein peptides were then conjugated via a bifunctional linker (SMCC) to bovine serum albumin (BSA). 96-well microplates” for “(PR)₁₅: H—C(PR)₁₅-OH. 96-well microplates”, “coated with BSA-coupled or -uncoupled dipeptide repeat” for “coated with dipeptide repeat”, “and incubated 1 h” for “and incubated for 1 h”, “Diego, USA).” for “Diego, USA). The binding specificity and EC₅₀ of human-derived antibodies for C9orf72 dipeptide repeat protein peptides (GA)₁₅, (GP)₁₅, (GR)₁₅, (PA)₁₅ and (PR)₁₅ were determined by indirect ELISA.”

[17] = molecular target: Tau (UniProt P10636-8 1-441, limits assumed); assay: indirect ELISA, coated protein
Protocol: (§4) 96-well microplates (Corning) were coated with different target proteins at a concentration of 1-10 μg/ml in coating buffer (15 mM Na₂CO₃, 35 mM NaHCO₃, pH 9.42). Non-specific binding sites were blocked for 1 h at RT with PBS/0.1% Tween®-20 containing 2% BSA (Sigma-Aldrich, Buchs, Switzerland). […] Binding was determined using donkey anti-human IgG Fcγ-specific antibody conjugated with HRP (Jackson ImmunoResearch Laboratories, Inc., West Grove, USA) followed by measurement of HRP activity in a standard colorimetric assay. Signals for target protein were calculated in fold increase above median.

[18] = molecular target: T10, transactive response DNA binding protein 43 (UniProt Q13148 1-414, limits assumed); assay: indirect ELISA, coated protein
T10 construct: also called TDP-43
Protocol: as §4

[19] = molecular target: transthyrethin (UniProt P02766 21-147); assay: indirect ELISA, coated protein
Protocol: as §4

[20] = molecular target: T11, full-length amyloid precursor protein (UniProt P05067 18-770, limits assumed); assay: indirect ELISA, coated protein
T11 construct: also called flAPP
Protocol: as §4

[21] = molecular target: T4, (GR)15: H-C(GR)15-OH; assay: indirect ELISA, coated uncoupled peptide
Protocol: as §3

[22] = molecular target: T1, BSA-coupled (PA)15 DPR protein peptide; assay: Western blot, BSA-coupled peptide
Protocol: as §1, §2

[23] = molecular target: T2, BSA-coupled (GP)15 DPR protein peptide; assay: Western blot, BSA-coupled peptide
Protocol: as §1, §2

T1 sequence (P02769 25-607 limits assumed): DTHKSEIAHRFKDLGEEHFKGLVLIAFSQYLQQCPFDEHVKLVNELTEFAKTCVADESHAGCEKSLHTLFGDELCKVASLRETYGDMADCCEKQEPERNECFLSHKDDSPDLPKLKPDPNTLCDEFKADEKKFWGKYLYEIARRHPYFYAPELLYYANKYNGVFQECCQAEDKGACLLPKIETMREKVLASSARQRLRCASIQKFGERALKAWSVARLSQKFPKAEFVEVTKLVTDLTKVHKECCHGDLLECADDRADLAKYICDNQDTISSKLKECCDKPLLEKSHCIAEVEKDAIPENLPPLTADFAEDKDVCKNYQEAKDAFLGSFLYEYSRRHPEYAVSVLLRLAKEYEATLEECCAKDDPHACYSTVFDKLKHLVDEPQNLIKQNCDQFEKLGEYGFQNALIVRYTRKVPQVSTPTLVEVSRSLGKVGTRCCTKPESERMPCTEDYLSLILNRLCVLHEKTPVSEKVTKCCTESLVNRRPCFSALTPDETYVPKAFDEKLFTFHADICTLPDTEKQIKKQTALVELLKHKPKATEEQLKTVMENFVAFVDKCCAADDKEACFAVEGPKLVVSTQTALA
T2 sequence (P02769 25-607 limits assumed): as above
T8 sequence (P02769 25-607 limits assumed): as above
T3 sequence (P02769 25-607 limits assumed): as above
T11 sequence (P05067 18-770 limits assumed): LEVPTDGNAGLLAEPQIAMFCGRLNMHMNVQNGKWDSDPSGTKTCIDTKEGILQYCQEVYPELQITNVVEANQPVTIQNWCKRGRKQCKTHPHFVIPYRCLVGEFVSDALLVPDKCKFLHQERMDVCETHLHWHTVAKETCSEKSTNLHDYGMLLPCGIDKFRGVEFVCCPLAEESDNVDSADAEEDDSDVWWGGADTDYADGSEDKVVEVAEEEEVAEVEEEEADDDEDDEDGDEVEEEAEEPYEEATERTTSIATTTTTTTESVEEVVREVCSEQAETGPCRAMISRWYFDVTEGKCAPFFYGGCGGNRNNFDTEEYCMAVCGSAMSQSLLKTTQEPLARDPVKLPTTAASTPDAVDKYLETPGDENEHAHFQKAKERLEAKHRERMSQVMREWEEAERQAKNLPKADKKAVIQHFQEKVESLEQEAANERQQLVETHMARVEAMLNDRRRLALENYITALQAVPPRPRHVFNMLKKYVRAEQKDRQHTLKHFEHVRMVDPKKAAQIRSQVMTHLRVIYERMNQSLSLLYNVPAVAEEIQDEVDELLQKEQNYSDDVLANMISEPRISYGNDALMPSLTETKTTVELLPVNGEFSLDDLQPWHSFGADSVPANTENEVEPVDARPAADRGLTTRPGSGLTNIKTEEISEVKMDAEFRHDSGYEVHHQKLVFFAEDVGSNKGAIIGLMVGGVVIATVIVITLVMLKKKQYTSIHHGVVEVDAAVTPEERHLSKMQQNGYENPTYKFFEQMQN
T10 sequence (Q13148 whole entry): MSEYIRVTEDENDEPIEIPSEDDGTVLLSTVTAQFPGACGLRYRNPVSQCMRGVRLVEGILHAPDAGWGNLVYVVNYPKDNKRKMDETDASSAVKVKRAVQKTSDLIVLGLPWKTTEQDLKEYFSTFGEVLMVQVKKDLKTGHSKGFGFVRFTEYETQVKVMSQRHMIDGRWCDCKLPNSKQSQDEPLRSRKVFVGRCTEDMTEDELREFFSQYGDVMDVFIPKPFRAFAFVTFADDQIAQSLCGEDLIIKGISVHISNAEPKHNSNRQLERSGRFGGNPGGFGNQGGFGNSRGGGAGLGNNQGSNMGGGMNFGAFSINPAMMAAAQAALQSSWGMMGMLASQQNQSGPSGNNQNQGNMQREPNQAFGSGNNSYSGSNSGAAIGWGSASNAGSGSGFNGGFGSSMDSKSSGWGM
Chain of Tau (P10636 other isoform, or with tags, fused parts or gaps limits assumed): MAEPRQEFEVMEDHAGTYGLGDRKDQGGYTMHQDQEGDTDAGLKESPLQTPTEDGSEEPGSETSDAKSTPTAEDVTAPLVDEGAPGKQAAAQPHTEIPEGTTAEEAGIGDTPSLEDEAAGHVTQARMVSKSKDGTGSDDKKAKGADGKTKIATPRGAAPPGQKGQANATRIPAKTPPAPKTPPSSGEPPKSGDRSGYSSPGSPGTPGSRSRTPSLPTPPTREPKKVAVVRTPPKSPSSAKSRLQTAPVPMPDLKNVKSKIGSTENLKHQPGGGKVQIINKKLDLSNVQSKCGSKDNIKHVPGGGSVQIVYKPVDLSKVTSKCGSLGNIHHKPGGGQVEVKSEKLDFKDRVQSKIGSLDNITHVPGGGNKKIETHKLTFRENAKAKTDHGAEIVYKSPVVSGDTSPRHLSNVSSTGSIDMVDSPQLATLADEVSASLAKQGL

B1: NI-308.16C10 (antibody, V domains shown)
VH: EVQLVETGGGVVQPGMSLSLSCAATGFTFSSYGMHWVRQGPGKGPEWVAGIWYDGTNKYYGDSVTGRVTISRDNSKNTLFLQMINVRVEDTAVYYCVKDAERVQKWASYIMDVWGQGTTVTVSS
VL: EIVLTQSPGILSLSRGNRVALSCRASRSVNSSYLNWYQQKPGQAPRLLIYGASKRATGISDRFRGTGSGTDFTLTVARLEPEDIAVYYCQHYGAFGQGTKLEIK
notes: Recombinant complete human IgG1, kappa
[1]
  binding result: no binding
[2]
  binding result: no binding
[3]
  binding result: no binding
[4]
  binding result: no binding
[5]
  binding result: no binding
[6]
  binding result: no binding (tested: about 4x10^5 pM (last point))
[7]
  EC50: 55.1 nM
[8]
  EC50: 91.1 nM
[9]
  EC50: 3.5 nM

B2: NI-308.12A3 (antibody, V domains shown)
VH: EVQLVETGGGLVQPGGSLRLSCVGSGFLFSDFEMDWVRQAPGKGLEWISYISGDGNIIYQTDSVKGRFTISRDNAKNSLFLQMDSLTVEDTAVYYCARDARENCGGDCYSTSFDFWGQGTLVTVSS
VL: DIQMTQSPDSLAVSLGERATINCKSSQSLLYTANNRNYLAWYQKKAGQPPKLLIHWASTRASGVPDRFSGSGSGTDFILTISSLQAEDVAVYFCQHYYNSPRTFGQGTKVEIK
notes: as for B1
[1]
  binding result: no binding
[10]
  binding result: no binding
[3]
  binding result: no binding
[4]
  binding result: no binding
[11]
  binding result: no binding
[12]
  binding result: no binding
[13]
  EC50: 2.2 nM
[14]
  EC50: 19 nM
[15]
  EC50: 6.1 nM

B3: NI-308.46F8 (antibody, V domains shown)
VH: QVQLVESGGGVVRPGGSLRLSCTASGFTFDEYGMSWVRQVPGKGLEWVSGINWNGATTRYADSVKGRFTISRDNAKNSLYLQMNSLRAEDTALYHCARDGCRNTSCYIWDWFDPWGQGTLVTVSS
VL: CQSVLTQPPSVSAAPGQKVTISCSGSSSNIGNNYVCWYQNLPGTAPKLLIYDDNKRPSGIPDRFSGSKSGTSATLGITGLQTGDEADYYCGTWDSSLSVVVFGGGTKLTVL
[16]
  EC50: 90.3 nM
[5]
  binding result: no binding
[12]
  binding result: no binding
[17]
  binding result: no binding (tested: 20 nM)
[18]
  binding result: no binding (tested: 20 nM)
[19]
  binding result: no binding (tested: 20 nM)
[20]
  binding result: no binding (tested: 20 nM)
[21]
  EC50: 40.6 nM
[22]
  binding result: no binding (tested: 10 nM or 100 nM)
[23]
  binding result: no binding (tested: 10 nM or 100 nM)
